The target in this assay is yNap1 C200A/C249A/C272A labelled with Alexa dye at Cys-414 (yNap1m*) (yeast) (UniProt P25293). Put plainly: other fluorescence titration.

The source of these data is publication PMC2583301.

As a reminder, the Kd is the equilibrium constant for the complex coming apart. High values mean a looser complex, low ones a tighter complex.

Substance linker histone H1 (natural protein) registered a Kd of 3 nM and a stoichiometry N (H1 per yNap1 dimer) of 2.
